In US20200148741A1:

Columns and labels:
[1] = target: T1, recombinant staphylococcal enterotoxin B (SEB), mature protein with N-terminal His6-tag (Staphylococcus aureus COL), P01552
T1 chain: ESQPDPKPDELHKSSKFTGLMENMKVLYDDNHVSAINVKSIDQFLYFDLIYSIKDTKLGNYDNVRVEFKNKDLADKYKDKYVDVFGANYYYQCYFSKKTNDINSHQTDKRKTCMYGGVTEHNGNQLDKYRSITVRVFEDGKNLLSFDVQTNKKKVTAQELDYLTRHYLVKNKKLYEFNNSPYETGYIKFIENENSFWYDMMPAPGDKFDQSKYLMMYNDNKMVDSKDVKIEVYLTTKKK

[2] = target: T2, recombinant toxic shock syndrome toxin-1 (TSST-1), mature protein with N-terminal His6-tag (Staphylococcus aureus), P06886
T2 chain: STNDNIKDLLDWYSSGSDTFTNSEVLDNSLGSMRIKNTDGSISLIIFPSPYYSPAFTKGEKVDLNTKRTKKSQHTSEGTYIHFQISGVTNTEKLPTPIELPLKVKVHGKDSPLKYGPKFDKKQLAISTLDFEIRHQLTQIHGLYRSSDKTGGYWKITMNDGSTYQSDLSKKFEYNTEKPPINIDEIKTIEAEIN

B1: pB2-6, immobilized for Surface Plasmon Resonance (peptide)
peptide: DSDSWTLR
modifications: not checked
- Kd [1]: 3900 nM
- koff [1]: 0.0019 s⁻¹
- kon [1]: 491 M⁻¹ s⁻¹
- Kd [2]: 1200 nM
- koff [2]: 0.00304 s⁻¹
- kon [2]: 2530 M⁻¹ s⁻¹
